The values below come from patent US20180162932A1 (ACADEMISCH MEDISCH CENTRUM, published 2018).

First the molecules themselves.
B1: C8C8 homo-bihead (designed binder)
chain: EVQLVESGGGLVQAGGSLRLSCAASGRTFRINDMGWYRQAPGKSRDMVARITSGGNTNYADSVKGRFTISRDNAKNTVYLQMNSLKPEDTAVYYCNADGLRFDSTRYRPFDSWGQGTQVTVSSGGGGSGGGGSEVQLVESGGGLVQAGGSLRLSCAASGRTFRINDMGWYRQAPGKSRDMVARITSGGNTNYADSVKGRFTISRDNAKNTVYLQMNSLKPEDTAVYYCNADGLRFDSTRYRPFDSWGQGTQVTVSS
B2: VHH C4 (VHH)
VHH: EVQLVESGGGLVQAGGSLRLSCAASGRTFSTYAMGWFRQAPGKEREFVAAISKGGGITYYSDSVRGRFTISKENAKNTVYLQMNSLKPEDTAVYYCAADPVSSVAKSPVAYPYWGQGTQVTVSS
notes: Produced in E. coli periplasm with tags (anti-myc detection, TALON purification); also called C4 monomer; C4 monohead
B3: C4C4 homo-bihead (designed binder)
chain: EVQLVESGGGLVQAGGSLRLSCAASGRTFSTYAMGWFRQAPGKEREFVAAISKGGGITYYSDSVRGRFTISKENAKNTVYLQMNSLKPEDTAVYYCAADPVSSVAKSPVAYPYWGQGTQVTVSSGGGGSGGGGSEVQLVESGGGLVQAGGSLRLSCAASGRTFSTYAMGWFRQAPGKEREFVAAISKGGGITYYSDSVRGRFTISKENAKNTVYLQMNSLKPEDTAVYYCAADPVSSVAKSPVAYPYWGQGTQVTVSS
notes: also called C4C4 dimer
B4: VHH C8 (VHH)
VHH: EVQLVESGGGLVQAGGSLRLSCAASGRTFRINDMGWYRQAPGKSRDMVARITSGGNTNYADSVKGRFTISRDNAKNTVYLQMNSLKPEDTAVYYCNADGLRFDSTRYRPFDSWGQGTQVTVSS
notes: also called C8 monomer
B5: human mature bone morphogenic protein 4 (ligand)
chain: KHHSQRARKKNKNCRRHSLYVDFSDVGWNDWIVAPPGYQAFYCHGDCPFPLADHLNSTNHAIVQTLVNSVNSSIPKACCVPTELSAISMLYLDEYDKVVLKNYQEMVVEGCGCR
notes: Recombinant, R&D Systems (314-BP-020); mature active dimer; also called BMP4; BMP-4
B6: VHH E7 (VHH)
VHH: EVQLVESGGGLVQAGGSLRLSCAASGSIRGFVAMAWYRQAPGKQREWVATVTNGGTLYGDSVKGRFTGSRDNAKNTVYLQMNSLKPEDTAVYYCALRQIGASGYDYWGQGTQVTVSS
notes: also called E7 monomer
B7: mouse Noggin (other, UniProt P97466 28-232, looked up)
chain: QHYLHIRPAPSDNLPLVDLIEHPDPIFDPKEKDLNETLLRSLLGGHYDPGFMATSPPEDRPGGGGGPAGGAEDLAELDQLLRQRPSGAMPSEIKGLEFSEGLAQGKKQRLSKKLRRKLQMWLWSQTFCPVLYAWNDLGSRFWPRYVKVGSCFSKRSCSVPEGMVCKPSKSVHLTVLRWRCQRRGGQRCGWIPIQYPIISECKCSC

“And” between values parts separate entries of the source, which are not always exact repeats. Identical values can stand only once.

The target in experiment [1] is B5. The experiment can be described thus: cell-based or functional assay.
Experiment [2] concerns the target T1, mature bone morphogenic protein 2 (human, UniProt P12643 283-396). The experiment can be described thus: cell-based or functional assay.
For experiment [3], the target named is B5. The experiment can be described thus: titration ELISA of purified VHH on immobilized BMP4. For orientation: An ELISA detects its analyte on a solid surface through an enzyme-linked reagent.
In experiment [4] the target is B5. The experiment can be described thus: SPR, ratio of KD values. The protocol: (§1) In a first set of experiments, controls and VHHs (either as monomers or dimers) were coupled to SPR chips and the measurement of BMP affinities was obtained by injecting the different BMPs to the plate.
(§2) Serial dilutions (2.0-10 μg/ml) of purified VHHs were spotted on an amine-specific SensEye gold-film gel-type SPRchip (Ssens), using a Continuous Flow Microspotter (Wasatch Microfluidics, Salt Lake City, Utah, United States) as described (Lokate et al., 2007). BMP binding was analyzed on an IBIS MX96 (IBIS Technologies, Enschede, The Netherlands) instrument by performing injections with dilution series (0.05-2.0 μg/ml) of recombinant BMPs on the VHH-coated chip. In each injection, BMPs were injected and incubated for 8 min, followed by 15 min thorough washing with binding buffer (PBS+0.05% Tween20+0.05% sodium azide) to measure dissociation. Epitope binning was done by injecting VHH dilutions (2.0 μg/ml) over the chip, immediately after the dissociation step. Injections with blank binding buffer were used as reference. After each concatenated injection, the chip was regenerated with 10mM glycine-HCl, pH 2.0. Experimental data were processed with SPRintX software (IBIS Technologies) and kinetic parameters were determined using Scrubber2 software (BioLogic Software, Campbell, ACT, Australia). Binding constants were obtained by global fitting to a one-site binding model.
(Surface plasmon resonance follows binding to a sensor surface in real time, without labels.)

The target of experiment [5] is T2, human mature bone morphogenic protein 5 (human, UniProt P22003 340-454).
T2 construct: Often printed as BMPS in the text; also called BMP5; BMPS (so in the source)
T2 sequence: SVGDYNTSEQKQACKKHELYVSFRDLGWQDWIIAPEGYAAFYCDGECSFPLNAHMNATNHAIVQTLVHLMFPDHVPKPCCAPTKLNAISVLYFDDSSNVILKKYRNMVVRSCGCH
The experiment can be described thus: western blot of unreduced recombinant BMP, C4C4 as primary antibody.
Protocol: To determine the different forms of BMP4, recombinant proteins and carcinoma cell lines lysate were used. Protein concentrations of cell lysates were determined using Pierce™ BCA Protein Assay Kit (Pierce Biotechnology, Rockford, Ill. USA), following the manufacturer's protocol. Equal amount of sample were loaded (between 8 and 30 μg/lane) on a 10% SDS-polyacrylamide gel and subsequently blotted onto PVDF transfer membranes. The membranes were blocked with blocking solution (5% Nonfatmilk+Tris-Buffered Saline with Tween®-20 (TBST) or 5% bovine serum albumin (BSA)+TBST) and subsequently incubated with the appropriate primary antibody and secondary antibody. Afterwards, membranes were washed and incubate with chemiluminescent solution (Pierce™ ECL subtract, Pierce Biotechnology, Rockford, Ill. USA) and visualized using ImageQuant LAS 4000 (GE Healthcare Life Science). […] Secondary antibodies include: HRP-anti-rabbit (1:200; Cat. No. P0448; Dako), HRP-anti-mouse (1:2000; Cat. No. P0447; Dako) and HRP-anti-llama (1:1000; Cat. No. ab112786; Abcam).

Experiment [6] deals with B5. The experiment can be described thus: SPR (IBIS MX96), VHH or control on chip, BMP injected. The protocol: as §1, §2
Experiment [7] has as its target T3, human mature bone morphogenic protein 6 (human, UniProt P22004 375-513).
T3 construct: also called BMP6; BMP-6
T3 sequence: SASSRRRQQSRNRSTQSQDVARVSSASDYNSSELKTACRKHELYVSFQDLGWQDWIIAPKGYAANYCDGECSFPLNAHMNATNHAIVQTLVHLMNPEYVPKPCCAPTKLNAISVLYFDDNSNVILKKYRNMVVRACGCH
The experiment can be described thus: SPR, VHH on chip, BMP injected. The protocol: as §2

In experiment [8] the target is T4, human mature bone morphogenic protein 7 (human, UniProt P18075 293-431).
T4 construct: also called BMP7; BMP-7
T4 sequence: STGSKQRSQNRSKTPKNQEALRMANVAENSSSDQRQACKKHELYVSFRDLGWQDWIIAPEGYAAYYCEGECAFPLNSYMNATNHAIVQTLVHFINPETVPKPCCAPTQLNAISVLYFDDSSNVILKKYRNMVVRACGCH
Briefly: SPR, VHH on chip, BMP injected. The protocol:
as §2

The target of experiment [9] is T2, human mature bone morphogenic protein 5. Briefly: SPR, VHH on chip, BMP injected. The protocol: as §2
For experiment [10], the target named is T1, mature bone morphogenic protein 2. Briefly: SPR (IBIS), VHH spotted on the chip, BMP2 injected. The protocol:
as §1, §2

Experiment [11] addresses B7. The experiment can be described thus: SPR (IBIS MX96), VHH or control on chip, BMP injected. The protocol: as §1, §2
Experiment [12] concerns the target T3, human mature bone morphogenic protein 6. Briefly: summary of SPR results.

T1 sequence (P12643 283-396): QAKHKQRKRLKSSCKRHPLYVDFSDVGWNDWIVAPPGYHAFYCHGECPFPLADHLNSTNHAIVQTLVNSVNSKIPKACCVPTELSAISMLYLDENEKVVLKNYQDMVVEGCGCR

On to “human Noggin (from UniProt Q13253 28-232)”, for which the IC50, BRE-luciferase, C2C12 cells was 0.54 nM in [1] and 1.6 nM in experiment [2].

As to “anti-BMP4 R&D (Clone 66119, Mouse IgG2B, MAB757) (antibody)”, the percent inhibition of the BMP4-specific signal at 100 ng/ml, BRE-luciferase, C2C12 cells in experiment [1] is 30%.

As to B1, in [1], the “IC50, BRE-luciferase, C2C12 cells” value is approximately 0.45 nM and the “fold potency on BMP4 against BMP2, BRE-luciferase, C2C12 cells” value turned out to be 16 fold. Also, the “IC50, BRE-luciferase, C2C12 cells” value in experiment [2] is 1.21 nM.

In general, EC50 (read off the curve) refers to the concentration needed to bring the measured effect to its halfway point. In the case of B2, the “EC50 (read off the curve)” value in experiment [3] is approximately 3 nM.

In general, Kd refers to a measure of binding affinity in units of concentration. In the case of B3, in experiment [4], the “fold higher affinity than BMPR1a” value worked out at 70 fold and the “fold higher affinity than Noggin” value came out at 10 fold. For the same molecule, the binding result in experiment [5] is on record as “no binding (tested: 0.1 µg/ml primary antibody)”. The molecule further had a Kd in experiment [6] of 0.0097 nM. In [1], the “IC50, BRE-luciferase, C2C12 cells” value was ~600 pM and 1.3 ng/ml and 45 nM; the “fold increase in inhibition against monomer C4, BRE-luciferase, C2C12 cells” value was 9 fold.

For B4, the binding result in [7] is “no binding”; in [8], “no binding”; in [9], “no binding”; in [10] it was “binds”.

Molecule B5 registered a Kd in experiment [11] of 0.091 nM.

For the molecule B6, the binding result in experiment [12] is reported as “binds”.

Turning to B7, the entries for the “IC50, BRE-luciferase, C2C12 cells” value in experiment [1] and in [2] were approximately 0.615 nM and approximately 2.5 nM, respectively.
